In publication PMC6265488:

Tests used:
Test in all cases: co-sedimentation
[1] = molecular target: 28S small mitoribosome subunit (mtSSU) (human (endogenous in HEK293T or 143B))
[2] = molecular target: 39S large mitoribosome subunit (mtLSU) (human (endogenous in HEK293T or 143B))
[3] = molecular target: 55S monosome (human (endogenous in HEK293T or 143B))

Row | Substance | percent of total GTPBP10 that co-sediments [1] | percent of total GTPBP10 that co-sediments [2] | percent of total GTPBP10 that co-sediments [3]
1 | GTPBP10 (endogenous in 143B, isoform 2) (natural protein) | 10% | 10% | 1 to 2%
2 | GTPBP10 (endogenous in HEK293T, isoform 1) (from UniProt A4D1E9-1 1-387) (natural protein) | 10% | 10% | 1 to 2%
